Results taken from patent US8889621B2, “Inhibiting binding of FGF23 to the binary FGFR-Klotho complex for the treatment of hypophosphatemia” (New York University, priority 2009, dated 2014).
Entries after “also recorded” stand apart in the source; their conditions may differ. Peptide text beside a SMILES is read from it.

Columns and labels:
[1] = system: tyrosine phosphorylation of FRS2α and downstream activation of MAP kinase cascade; assay: Phosphorylation of FRS2α and 44/42 MAP kinase in HEK293-Klotho cells; assay type: cell-based; conditions: for inhibition of FGF23-induced phosphorylation of FRS2α and MAP kinase activation: FGF23^28-251 1 nM, 10 min
Description: Subconfluent HEK293-Klotho cells (Kurosu et al., “Regulation of Fibroblast Growth Factor-23 Signaling by Klotho,” J Biol Chem 281(10):6120-6123 (2006), which is hereby incorporated by reference in its entirety) were serum starved for 16 h and then stimulated for 10 min with either FGF23^28-251 (0.33 to 10 nM) or FGF23^180-251 (0.76 to 76.3 nM). In parallel experiments, cells were stimulated with FGF23^28-251 (1 nM) alone or with FGF23^28-251 (1 nM) mixed with increasing concentrations of either FGF23^180-251 (0.76 to 76.3 nM) or FGF23^180-205 (0.1 to 10 μM). Cell stimulation with FGF2 (2.9 nM) alone or FGF2 (2.9 nM) mixed with increasing concentrations of FGF23^180-251 (0.76 to 76.3 nM) served as controls. Similarly, subconfluent cells of a CHO cell line stably expressing Klotho (Imura et al., “Secreted Klotho Protein in Sera and CSF: Implication for Post-translational Cleavage in Release of Klotho Protein from Cell Membrane,” FEBS Lett 565(1-3):143-147 (2004), which is hereby incorporated by reference in its entirety) were treated with either FGF23^28-251 (0.067 to 20 nM) or FGF23^28-200 (0.04 to 12 nM).
In a separate experiment, the biological activity of the bacterially expressed FGF23^28-251 protein was compared to that of FGF23^25-251 expressed in the mouse myeloma cell line NS0 (R&D Systems). Subconfluent HEK293-Klotho cells were serum starved, and then treated with either of the two FGF23 proteins.
After stimulation, the cells were lysed (Kurosu et al, “Suppression of Aging in Mice by the Hormone Klotho,” Science 309(5742):1829-1833 (2005), which is hereby incorporated by reference in its entirety), and cellular proteins were resolved on SDS-polyacrylamide gels, transferred to nitrocellulose membranes, and the protein blots were probed with antibodies to phosphorylated FGF receptor substrate-2α (FRS2α), phosphorylated 44/42 MAP kinase and non-phosphorylated 44/42 MAP kinase, and Klotho. Except for the anti-Klotho antibody (Kato et al., “Establishment of the Anti-Klotho Monoclonal Antibodies and Detection of Klotho Protein in Kidneys,” Biochemical Biophysical Res Communications 267(2):597-602 (2000), which is hereby incorporated by reference in its entirety), all antibodies were from Cell Signaling Technology.

NaPi-2A = NaPi-2A protein abundance in apical brush border membrane of rat kidney; assay type: in vivo; conditions: IV 0.1 μg kg body weight^−1, 3 h post injection, vs vehicle
Description: Immunoblot analysis of NaPi-2A and NaPi-2C protein abundance in renal cortex tissue and isolated brush border membrane vesicles (BBMV), and NaPi-2A immunostaining of renal tissue were performed as described (Bacic et al., “Activation of Dopamine Dl-like Receptors Induces Acute Internalization of the Renal Na^+/phosphate Cotransporter NaPi-IIa in Mouse Kidney and OK cells,” Am J Physiol Renal Physiol 288(4):F740-747 (2005), Loffing et al., “Renal Na/H Exchanger NHE-3 and Na—PO4 Cotransporter NaPi-2 Protein Expression in Glucocorticoid Excess and Deficient States,” J Am Soc Nephrol 9(9):1560-1567 (1998), Moe et al., “Dietary NaCl Modulates Na(+)-H+ Antiporter Activity in Renal Cortical Apical Membrane Vesicles,” Am J Physiol 260(1 Pt 2):F130-137 (1991), which are hereby incorporated by reference in their entirety).
For immunoblot, rat kidney cortices were dissected and homogenized, and BBMV were isolated (Loffing et al., “Renal Na/H Exchanger NHE-3 and Na—PO4 Cotransporter NaPi-2 Protein Expression in Glucocorticoid Excess and Deficient States,” J Am Soc Nephrol 9(9):1560-1567 (1998), Moe et al., “Dietary NaCl Modulates Na(+)-H+ Antiporter Activity in Renal Cortical Apical Membrane Vesicles. Am J Physiol 260(1 Pt 2):F130-137 (1991), which are hereby incorporated by reference in their entirety). […]

Molecule | inhibition of FGF23-induced phosphorylation of FRS2α and MAP kinase activation [1] | NaPi-2A protein expression in the apical brush border membrane (NaPi-2A) | inhibition of FGF2-induced phosphorylation of FRS2α and MAP kinase activation ([1]; FGF2 2.9 nM) | FGFR activation (FRS2α and 44/42 MAP kinase phosphorylation as readouts) ([1]; peptide alone / with FGF23)
CSCC[C@H](NC(=O)[C@H](CCCNC(=N)N)NC(=O)[C@H](C)NC(=O)[C@H](CCCNC(=N)N)NC(=O)[C@@H]1CCCN1C(=O)[C@H](CCCCN)NC(=O)[C@H](CC(C)C)NC(=O)[C@@H](NC(=O)[C@H](CC(N)=O)NC(=O)[C@H](CC(C)C)NC(=O)[C@@H]1CCCN1C(=O)[C@H](CC(=O)O)NC(=O)[C@H](CCCNC(=N)N)NC(=O)[C@H](CCC(=O)O)NC(=O)[C@H](CO)NC(=O)[C@H](CC(=O)O)NC(=O)[C@H](CC(=O)O)NC(=O)[C@H](CCC(=O)O)NC(=O)[C@H](C)NC(=O)[C@@H](N)CO)C(C)C)C(=O)N[C@H](C(=O)N1CCC[C@H]1C(=O)N[C@@H](C)C(=O)N1CCC[C@H]1C(=O)N[C@@H](C)C(=O)N[C@@H](CO)C(=O)O)[C@@H](C)O [FGF23^180-205] (H-SAEDDSERDPLNVLKPRARMTPAPAS-OH; N-terminus and C-terminus assumed) | inhibited, in a dose-dependent fashion |  |  | 
FGF23^28-251: human FGF23 (A28 to I251), bioactive full-length ligand expressed in E. coli (protein, listed as Homo sapiens) ASPLLGSSWGGLIHLYTATARNSYHLQIHKNGHVDGAPHQTIYSALMIRSEDAGFVVITGVMSRRYLCMDFRGNIFGSHYFDPENCRFQHQTLENGYDVYHSPQYHFLVSLGRAKRAFLPGMNPPPYSQFLSRRNEIPLIHFNTPIPRRHTRSAEDDSERDPLNVLKPRARMTPAPASCSQELPSAEDNSPMASDPLGVVRGGRVNTHAGGTGPEGCRPFAKFI |  | decrease; also recorded: diminished |  | 
FGF23^180-251: 72-amino acid C-terminal tail of human FGF23 (S180 to I251), expressed in E. coli (protein, listed as Homo sapiens) SAEDDSERDPLNVLKPRARMTPAPASCSQELPSAEDNSPMASDPLGVVRGGRVNTHAGGTGPEGCRPFAKFI | inhibited, in a dose-dependent fashion | increased | failed to inhibit | had no activity alone; also recorded: functioned as an antagonist
